Results reported in patent US20210024607A1, “EXPRESSION VECTORS FOR CHIMERIC ENGULFMENT RECEPTORS, GENETICALLY MODIFIED HOST CELLS, AND USES THEREOF” (CERo Therapeutics, Inc., priority 2018, published 2021).

Assays:
[1] = tested on: HPV+ SCC152 head and neck cancer cells; test: FACS phagocytosis assay with pHrodo-labeled SCC152 cells; assay type: cell-based, human; details: CellTrace-violet labeled T cells, compared with mock transduced T cells
Description: CellTrace-violet labeled mock transduced, HPV E7-TCR transduced T cells, and HPV E7-TCR/CER29 tandem expression cassette transduced T cells were co-cultured pHrodo-red labeled HPV+SCC152 head and neck cancer cells.
The ability of CER modified-T cells to engulf target cells and recapitulate engulfment-signaling events was evaluated in co-culture assays. T cells were transduced with a nucleic acid encoding HPV E7 specific TCR (polypeptide sequence comprising SEQ ID NO:158) or tandem expression cassette encoding HPV E7 specific TCR+ CER29 (polypeptide sequence comprising SEQ ID NO:169). pHrodo-labeled HPV+ SCC152 head and neck cancer cells were co-incubated with mock transduced T cells, HPV E7 TCR transduced T cells, or HPV E7 TCR/CER29-transduced T cells.

[2] = tested on: phosphatidylserine-coated beads; test: Phagocytic uptake of phosphatidylserine-coated latex beads; assay type: cell-based, human; details: 30 minutes incubation, transduced CD8+ T cells
Excerpt: Streptavidin coated latex beads were bound with biotin-phosphatidylserine and used for phagocytosis assays.

B1: HPV16 E7 TCR: HPV16 E7 specific TCR (WO2015/184228), SEQ ID NO:90; control transduced alone into T cells (protein)
chain: MAPGLLCWALLCLLGAGLVDAGVTQSPTHLIKTRGQQVTLRCSPKSGHDTVSWYQQALGQGPQFIFQYYEEEERQRGNFPDRFSGHQFPNYSSELNVNALLLGDSALYLCASSLGWRGGRYNEQFFGPGTRLTVLEDLRNVTPPKVSLFEPSKAEIANKQKATLVCLARGFFPDHVELSWWVNGKEVHSGVCTDPQAYKESNYSYCLSSRLRVSATFWHNPRNHFRCQVQFHGLSEEDKWPEGSPKPVTQNISAEAWGRADCGITSASYQQGVLSATILYEILLGKATLYAVLVSTLVVMAMVKRKNSRAKRSGSGATNFSLLKQAGDVEENPGPMWGVFLLYVSMKMGGTTGQNIDQPTEMTATEGAIVQINCTYQTSGFNGLFWYQQHAGEAPTFLSYNVLDGLEEKGRFSSFLSRSKGYSYLLLKELQMKDSASYLCASVDGNNRLAFGKGNQVVVIPNIQNPEPAVYQLKDPRSQDSTLCLFTDFDSQINVPKTMESGTFITDKCVLDMKAMDSKSNGAIAWSNQTSFTCQDIFKETNATYPSSDVPCDATLTEKSFETDMNLNFQNLLVIVLRILLLKVAGFNLLMTLRLWSS
modifications: HPV16 E7 TCRbeta chain-P2A-TCRalpha chain
notes: control transduced alone into T cells
With B1 the “phagocytosis of pHrodo-labeled SCC152 cells by FACS” value [1] was “no difference in phagocytosis between mock-transduced T cells and E7 TCR transduced T cells” and the “uptake of phosphatidylserine-coated latex beads” value [2] was “do not exhibit uptake of latex beads coated with phosphatidylserine”.
